{
  "source": "paper PMC7733473",
  "about": "“Aberrant interaction of FUS with the U1 snRNA provides a molecular mechanism of FUS induced amyotrophic lateral sclerosis”",
  "key": {"FUS-RRM (RRM-RGG2) [1]": {"target": "FUS-RRM (RRM-RGG2) (UniProt P35637)", "sequence (P35637 260-390)": "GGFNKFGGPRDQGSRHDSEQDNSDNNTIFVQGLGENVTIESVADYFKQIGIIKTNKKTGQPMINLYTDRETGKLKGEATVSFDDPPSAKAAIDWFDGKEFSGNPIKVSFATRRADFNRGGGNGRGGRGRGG", "assay": "ITC", "conditions": "n = 0.85; K = (1.25 ± 0.08)e5; 13C/15N in RNA-observed NMR; ITC: 10 mM Na phosphate pH 6.8, 50 mM NaCl, 1 mM β-mercaptoethanol, 25 °C; NMR 313 K; SEC: 10 mM Na phosphate pH 6.8, 100 mM NaCl, 2 mM DTT; EMSA: 10 mM HEPES …"}, "FUS-RBD (RRM-RGG2-ZnF) [2]": {"tested_on": "FUS-RBD (RRM-RGG2-ZnF)", "assay": "competition", "conditions": "equimolar Sm proteins and U1-70K (1-216) present; ITC: 10 mM Na phosphate pH 6.8, 50 mM NaCl, 1 mM β-mercaptoethanol, 25 °C; NMR 313 K; SEC: 10 mM Na phosphate pH 6.8, 100 mM NaCl, 2 mM DTT; EMSA: 10 mM HEPES …; scale: % reduction of FUS capacity to impair core snRNP assembly"}, "FUS-RBD (RRM-RGG2-ZnF) [3]": {"tested_on": "FUS-RBD (RRM-RGG2-ZnF)", "assay": "ITC", "conditions": "n = 0.92; K = (1.37 ± 0.23)e7; ITC: 10 mM Na phosphate pH 6.8, 50 mM NaCl, 1 mM β-mercaptoethanol, 25 °C; NMR 313 K; SEC: 10 mM Na phosphate pH 6.8, 100 mM NaCl, 2 mM DTT; EMSA: 10 mM HEPES …"}, "[4]": {"tested_on": "FUS-RBD WT, EMSA construct", "assay": "EMSA", "conditions": "5 mM Mg2+, yeast tRNA and salmon sperm DNA; value given jointly with ITC; ITC: 10 mM Na phosphate pH 6.8, 50 mM NaCl, 1 mM β-mercaptoethanol, 25 °C; NMR 313 K; SEC: 10 mM Na phosphate pH 6.8, 100 mM NaCl, 2 mM DTT; EMSA: 10 mM HEPES …"}, "FUS-RRM (RRM-RGG2) [5]": {"target": "FUS-RRM (RRM-RGG2) (UniProt P35637 260-390)", "sequence (P35637 260-390)": "as above", "assay": "NMR titration; ITC: 10 mM Na phosphate pH 6.8, 50 mM NaCl, 1 mM β-mercaptoethanol, 25 °C; NMR 313 K; SEC: 10 mM Na phosphate pH 6.8, 100 mM NaCl, 2 mM DTT; EMSA: 10 mM HEPES pH 7.3, 100 mM KCl, 5 mM MgCl2, tRNA and ssDNA 10 µg/ml each, room temperature", "conditions": "protein: recombinant"}},
  "data": [
    {"molecule": "U1 SL3", "values": [
      {"measurement": "Kd", "setting": "FUS-RRM (RRM-RGG2) [1]", "value": 8000, "unit": "nM"}
    ]},
    {"molecule": "U1 SL34", "values": [
      {"measurement": "binding signal", "setting": "FUS-RBD (RRM-RGG2-ZnF) [2]", "value": 75},
      {"measurement": "Kd", "setting": "FUS-RBD (RRM-RGG2-ZnF) [3]", "value": 70, "unit": "nM"},
      {"measurement": "Kd", "setting": "[4]", "value": 70, "unit": "nM"}
    ]},
    {"molecule": "GGACUUGAAAUAUAGUCC (structured_RNA)", "note": "[U4 3'-ISL fragment]", "values": [
      {"measurement": "binding result", "setting": "FUS-RRM (RRM-RGG2) [5]; hairpin", "value": "binds"}
    ]},
    {"molecule": "GGCUCUGGUUUCUUCGGGAACAACUCUGAGCC (structured_RNA)", "note": "[U5 IL-1 fragment]", "values": [
      {"measurement": "binding result", "setting": "FUS-RRM (RRM-RGG2) [5]; hairpin with internal bulge, UUCG loop", "value": "binds"}
    ]},
    {"molecule": "UAUACUAA (ssRNA)", "note": "[U6 21-28]", "values": [
      {"measurement": "binding result", "setting": "FUS-RRM (RRM-RGG2) [5]; single strand", "value": "binds"}
    ]}
  ]
}
